Tests used:
[1] = system: MD55A3 cells expressing the out-of-frame tGFP+1 reporter gene; assay: 2D-LC MS/MS full proteome, out-of-frame tGFP+1 reporter; format: cell-based, human; conditions: IFNγ-treated vs control MD55A3 cells, +1 out-of-frame tGFP
Description: For deeper proteome coverage in search of IFNγ-induced frameshifts, IFNγ- or mock treated melanoma cells were lysed and digested as described above, after which dried digests were subjected to basic reversed-phase (HpH-RP) high-performance liquid chromatography for offline peptide fractionation. 250 μg peptides were reconstituted in 95% 10 mM ammonium hydroxide (NH4OH, solvent A)/5% (90% acetonitrile (ACN)/10 mM NH4OH, solvent B) and loaded onto a Phenomenex Kinetex EVO C18 analytical column (150 mm×2.1 mm, particle size 5 μm, 100 Å pores) coupled to an Agilent 1260 HPLC system equipped with a fraction collector. […] All fractions were analyzed by nanoLC-MS/MS on an Orbitrap Fusion Tribrid mass spectrometer equipped with an Easy-nLC1000 system (Thermo Scientific) as described previously^72. […]
Further, the MS data was analyzed by MaxQuant (version 1.6.0.16)74. […] The in-frame protein expression data was further normalized and analyzed using DEP^76, For the frame-shift proteome analysis, the MS data was analyzed by MaxQuant (version 1.6.0.16)^74 with LFQ normalization, and then was scanned against the trans-frame polypeptide database together with the SWISSPROT proteins with Evidence level of 1. […] Only the peptides reproducibly detected across replicates were retained for further analysis, and the list included reverse peptide hits (n=41) (FIG. 4c). […]

[2] = system: A375 cells expressing H2-Kb; assay: H2-Kb-bound SIINFEKL presentation from V5-ATF4(1-63)-tGFP-SIINFEKL reporters; format: cell-based, human; conditions: IFNγ treatment
Text: FIG. 4: Aberrant frameshifted peptides are detected in full proteomes, are presented on HLA class I molecules, and induce peptide-specific T cell response. • (a) Gene set enrichment analysis (GSEA) based depiction of the proteomics data showing the induction of the IFN response and HLA genes following IFN treatment of MD55A3 cells. (b) A volcano plot showing differentially identified proteins as detected by 2D LC-MS/MS on lysates of MD55A3 cells expressing the V5-ATF4(1-63)-tGFP +1 out-of-frame construct. The red arrowhead indicates a peptide identified in the full proteome that corresponds to tGFP that could only have arisen from a frameshifting event. (c) Same analysis as panel b, but for the tryptophan-associated aberrant peptides identified to be reproducibly present in either IFNγ-treated or control conditions. […] (d) Bar graph depicting the median fluorescence intensity (MFI) of H2-Kb-bound SIINFEKL peptides in A375 cells expressing H2-Kb in combination with in-frame (Frame) or +1 out-of-frame (+1) V5-ATF4(1-63)-tGFP-SIINFEKL reporters. […] The panel presents 12 frameshifted peptides detected in the immuno-peptidomics mass spectrometry data of IFNγ and tryptophan deprived (mTRP) samples, which were not detected in the untreated controls. A subset of these were also detected in the fresh tumor metastases (mets) samples of the same patient (MD55). […]

B1: IFNγ: interferon gamma (PeproTech), used at 250 U/mL (protein, UniProt P01579 24-161, looked up)
Interferon gamma: QDPYVKEAENLKKYFNAGHSDVADNGTLFLGILKNWKEESDRKIMQSQIVSFYFKLFKNFKDDQSIQKSVETIKEDMNVKFFNSNKKKRDDFEKLTNYSVTDLNVQRKAIHELIQVMAELSPAAKTGKRKRSQMLFRG
induction of tGFP reporter peptide expression [1]: > 30 fold
presentation of +1 out-of-frame SIINFEKL peptide ([2]; +1 out-of-frame reporter, IDO1-dependent): strongly stimulated
presentation of in-frame SIINFEKL peptide ([2]; in-frame reporter, IDO1-independent): mildly induced

Source: US20230390371A1, “ANTI-TUMOR IMMUNITY INDUCES THE PRESENTATION OF ABERRANT PEPTIDES” (STICHTING HET NEDERLANDS KANKER INSTITUUT-ANTONI VAN …, priority 2020, published 2023)
